Source: publication PMC7768477 (Antibodies, 2020)
Positions count from the first letter of the chain named.

B1: sdAb G11 (VHH)
VHH: DVQLQASGGGLVQAGDSLTLSCAASGRTVSPYGVGWFRQAPGREREFVAALSRSGTFTAYADSVKGRFTISRDNAKNTVYLQMNSLKPDDTAVYHCAARSASSYYSTYRKEDDYHYWGQGTQVTVSS
notes: source: E. coli Tuner (DE3), periplasmic, purified (osmotic shock, IMAC, gel filtration)
B2: sdAb B5 (VHH)
VHH: EVQLQASGGGLAQPGGSLRLSCAASGFTLVYYGIGWFRQAPGKEREGVSCISSNDGSTYYADSVKGRFTISRDAAKNTVYLQMNSLKPEDTAVYYCATELGNTHRGSFFPNRRVERCRTDDFASWGQGTQVTVSS
notes: as for B1
B3: sdAb H6 (VHH)
VHH: B2 VHH with E1D, L11V, A12V, A23V, E115K
notes: also called clone H6; Bt-H6; source: E. coli Tuner (DE3), periplasmic, purified (osmotic shock, IMAC, gel filtration)
B4: sdAb F3 (VHH)
VHH: B2 VHH with E1D, A12V, N54Y, S57T, A74N, F108Y, N111K, R112Q, R118H, D120G
notes: as for B1
B5: sdAb C7 (VHH)
VHH: B2 VHH with A12V, A23V, V79M
notes: as for B1
B6: sdAb E10 (VHH)
VHH: DVQLQASGGGLVQAGASLRLSCAASGFTYTMGWFRQAPGQEREFVAAIARSGGTTYYTDSVKGRFTISRDNAKKTVFLQLNSLKPEDTAVYYCAADALPYSAQSMSTRNPGYWGQGTQVTVSS
notes: as for B1
B7: sdAb E11 (VHH)
VHH: B2 VHH with S57T, A74N, F108Y, N111K, R112Q, R118H, D120G
notes: as for B1
B8: sdAb E1 (VHH)
VHH: DVQLQASGGGLVQTGGSLRLSCENSGRALRIMGWFRQAPGKEREFVATINRNGESTYYSDSVKGRFTISRDNNKNTVYLQMNNLKPEDTGVYNCAADRPGPTQIKTRADDYDYWGEGTQVTVSS
notes: also called clone E1; source: E. coli Tuner (DE3), periplasmic, purified (osmotic shock, IMAC, gel filtration)

molecular target: T1, Lassa NPn (N-terminal portion of NP encoding residues 1-340) (Lassa virus lineage IV, strain Josiah, UniProt P13699); experiment: SPR; ProteOn XPR36; […] (20 ug/mL in 10 mM sodium acetate pH 5.0); […]; Langmuir model; details: both partners purified
T1 construct: source: bought: Zalgen (recombinant)
T1 sequence (P13699 1-340): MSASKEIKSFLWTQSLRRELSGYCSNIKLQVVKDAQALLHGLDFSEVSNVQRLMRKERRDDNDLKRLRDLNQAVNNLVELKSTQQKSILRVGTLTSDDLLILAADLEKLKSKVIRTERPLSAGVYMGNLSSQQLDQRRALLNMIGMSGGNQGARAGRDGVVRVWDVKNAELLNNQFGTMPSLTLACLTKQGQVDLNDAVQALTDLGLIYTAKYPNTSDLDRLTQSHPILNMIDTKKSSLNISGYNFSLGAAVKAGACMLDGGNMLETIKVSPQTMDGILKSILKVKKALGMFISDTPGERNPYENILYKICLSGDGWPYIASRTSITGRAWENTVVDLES

Binder | Kd [nM] | koff [s⁻¹] | kon [M⁻¹ s⁻¹] | binding result
B1 | 184 | 0.07 | 380000 | –
B2 | 19 | 0.0061 | 320000 | –
B3 | 9.3 | 0.0057 | 610000 | –
B4 | 7.5 | 0.003 | 400000 | –
B5 | 7.5 | 0.0038 | 510000 | –
B6 | 69 | 0.13 | 1.9e+06 | –
B7 | 57 | 0.0076 | 150000 | –
B8 | – | – | – | no binding

molecular target: T2, Lassa NPc (C-terminal portion of NP encoding residues 341-569) (Lassa virus lineage IV, strain Josiah, UniProt P13699); experiment: SPR; ProteOn XPR36; […] (20 ug/mL in 10 mM sodium acetate pH 5.0); […]; details: both partners purified
T2 construct: source: bought: Zalgen (recombinant)
T2 sequence (P13699 341-569): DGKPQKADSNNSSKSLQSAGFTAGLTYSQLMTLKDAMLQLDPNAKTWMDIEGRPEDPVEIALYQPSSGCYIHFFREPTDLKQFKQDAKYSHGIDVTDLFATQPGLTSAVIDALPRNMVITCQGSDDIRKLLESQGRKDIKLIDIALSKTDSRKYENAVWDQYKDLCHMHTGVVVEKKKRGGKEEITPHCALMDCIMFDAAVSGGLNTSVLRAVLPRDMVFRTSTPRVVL

Binder | binding result
B1 | no binding
B2 | no binding
B3 | no binding
B4 | no binding
B5 | no binding
B6 | no binding
B7 | no binding
B8 | no binding
